Measured values as given in patent publication US20190262327A1 (AstraZeneca / MedImmune, published 2019).
Positions count from the first letter of the chain named.

T1: unlabelled murine Amyloid beta 1-42 peptide (murine, UniProt P12023 672-713)
T1 construct: domain: Amyloid beta 1-42 peptide
T1 peptide (looked up): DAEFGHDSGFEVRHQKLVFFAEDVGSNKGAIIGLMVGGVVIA

T2: unlabelled murine Amyloid beta 1-40 peptide (murine, UniProt P12023 672-711)
T2 construct: domain: Amyloid beta 1-40 peptide
T2 peptide (looked up): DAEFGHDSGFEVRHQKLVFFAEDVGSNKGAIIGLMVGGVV

B1: human Abeta 1-16 peptide (peptide, UniProt P05067 672-687, looked up)
peptide: DAEFRHDSGYEVHHQK
notes: domain: Abeta 1-16
B2: Abet0380 scFv (scFv, V domains shown, not shown: small tags and cut ends)
VH: EVQLLESGGGLVQPGGSLRLSCAASMGNFNYQTMWWVRQAPGRGLEWVSVIGKTNENIAYADSVKGRFTISRDNSKNTLYLQMNSLRAEDTAVYYCAREWMDHSRPYYYYGMDVWGQGTLVTVSS
VL: SYELTQPPSVSVSPGQTASITCSGHNLEDKFASWYQQKPGQSPVLVIYRDDKRPSGIPERFSASNSGHTATLTISGTQATDEADYYCSSQDTVTRVFGGGTKLTVL
notes: Purified scFv expressed in E. coli
B3: Abet0144-GL scFv (scFv, V domains shown, not shown: small tags and cut ends)
VH: EVQLLESGGGLVQPGGSLRLSCAASGFTFSVYTMWWVRQAPGKGLEWVSVIGSSGGTTVYADSVKGRFTISRDNSKNTLYLQMNSLRAEDTAVYYCAREWMDHSRPYYYYGMDVWGQGTLVTVSS
VL: B2 VL with T80M, S88Q, S89A, T92S, V93T
notes: Purified scFv expressed in E. coli; also called parent clone
B4: Abet0369 scFv (scFv, V domains shown, not shown: small tags and cut ends)
VH: EVQLLESGGGLVQPGGSLRLSCAASSFQISKNTMWWVRRAPGKGLEWVSVIGKDETRFNYADSVKGRFTISRDNSKNTLYLQMNSLRAEDTAVYYCAREWMDHSRPYYYYGMDVWGQGTLVTVSS
VL: B2 VL with E3G, H25R, L27I, E28G, K30S, F31W, A32V, S33A
notes: as for B2
B5: Abet0323b scFv (scFv, V domains shown, not shown: small tags and cut ends)
VH: EVQLLESGGGLVQPGGSLRLSCAASTSTFQEDTMWWVRQAPGKGLEWVSVIGPNPKNNAYADSVKGRFTISRDNSKNTLYLQMNSLRAEDTAVYYCAREWMDHSRPYYYYGMDVWGQGTLVTVSS
VL: B2 VL with I57V, T104I
notes: as for B2
B6: Abet0377 scFv (scFv, V domains shown, not shown: small tags and cut ends)
VH: B2 VH with M26G, G27F, Y31E, M34L, R43K, K53V, T54G, N55T, E56K, S63T
VL: B2 VL with L27T, D29H, F31W, A32I, S64T
notes: as for B2
B7: Abet0380-GL (germlined) IgG1-TM (antibody, V domains shown)
VH: B2 VH with R43K
VL: B2 VL with T80M
notes: also called Abet0380-GL IgG1-TM; Abet0380-GL IgG1TM
B8: human Abeta 12-28 peptide (peptide, UniProt P05067 683-699, looked up)
peptide: VHHQKLVFFAEDVGSNK
notes: domain: Abeta 12-28
B9: human Abeta 17-42 peptide (peptide, UniProt P05067 688-713, looked up)
peptide: LVFFAEDVGSNKGAIIGLMVGGVVIA
notes: domain: Abeta 17-42

Experiments:
[1] = target: B7; assay: HTRF competition: unlabelled peptide titrated against the binding of N-terminal biotin Abeta 1-42 (1.5 nM) to Abet0380-GL IgG1-TM (0.5 nM)
Protocol: The assay was then incubated for a further 2 hrs at room temperature before reading on an Envision plate reader (PerkinElmer) using a standard homogeneous time resolved fluorescence (HTRF) read protocol.
The final assay volume was 20 μl and all reagents were prepared in an assay buffer comprising MOPS pH7.4 (50 mM), potassium fluoride (0.4M), tween 20 (0.1%) & fatty acid free BSA (0.1%). The assay was performed in low volume 384 well black assay plates (Costar 3676).

[2] = target: T3, biotinylated synthetic human Amyloid beta 1-42 peptide (human, UniProt P05067 672-713, biotinylated (N-terminal biotin in Example 4)); assay: HTRF epitope competition: purified scFv titrated against the complex of biotinylated human Amyloid beta 1-42 and Abet0144-GL IgG1-TM [upper graph; the letter C stands below it]
T3 construct: domain: Amyloid beta 1-42 peptide; Numbers 1-42 count on the Amyloid beta peptide, not on APP; also called biotinylated human Amyloid beta 1-42; N-terminal biotin Abeta 1-42
Source text: (§1) Two thousand and twenty four scFv chosen at random from selection rounds 3 and 4 of the targeted mutagenesis approach described in section 1.2 were expressed in bacteria to produce unpurified periplasmic scFv.
(§2) One thousand six hundred and seventy two scFv, randomly selected from selection rounds 9 to 11, were screened in an epitope competition assay as described in section 1.3.

[3] = target: T3, biotinylated synthetic human Amyloid …; assay: Surface Plasmon Resonance, purified scFv (group statement that sums up Table 5)
[4] = target: T3, biotinylated synthetic human Amyloid …; assay: SPR (ProteOn); biotinylated peptide on streptavidin chip, scFv in solution; 1:1 Langmuir fit
Protocol: (§3) These experiments were performed essentially as described by Karlsson et al. (Karlsson et al., 1991).
(§4) The chip surface was regenerated between cycles by a single 60 second injection of 10 mM Glycine pH 2.0 to remove scFv bound to the peptide.
(§5) Each scFv at 100-200 nM was sequentially passed over the peptide surface for a sufficient amount of time to observe sensorgrams that could be fitted to an appropriate binding model with confidence. An irrelevant scFv blank was subtracted from the main dataset to reduce the impact of any buffer artefacts or non-specific binding effects. An appropriate binding model was then fitted to the data.

[5] = target: T3, biotinylated synthetic human Amyloid …; assay: HTRF epitope competition; purified scFv titrated; competitor Abet0144-GL IgG1-TM
Protocol: as §1, §2
(§6) Where the assay was performed more than once, the absolute range of IC₅₀ values is provided.
Target sequence in this assay (P05067 672-713 limits assumed): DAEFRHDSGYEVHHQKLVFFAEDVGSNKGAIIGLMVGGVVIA

[6] = target: T3, biotinylated synthetic human Amyloid …; assay: HTRF epitope competition; purified scFv titrated; competitor Abet0144-GL IgG1-TM; range of repeats
Protocol: as §1, §2, §6
Target sequence in this assay (P05067 672-713 limits assumed): as above

[7] = target: T3, biotinylated synthetic human Amyloid …; assay: SPR (ProteOn); biotinylated peptide on streptavidin chip, scFv in solution
Protocol: as §3, §4, §5
Target sequence in this assay (P05067 672-713 limits assumed): as above

[8] = target: T3, biotinylated synthetic human Amyloid …; assay: HTRF epitope competition: purified scFv titrated against the complex of biotinylated human Amyloid beta 1-42 and Abet0144-GL IgG1-TM
Source text: as §1, §2

[9] = target: T1, unlabelled murine Amyloid beta 1-42 …; assay: Surface plasmon resonance (BIAcore), antibody captured on protein G, single cycle with five peptide injections (64 to 1024 nM by paragraph 390)
Protocol: as §3
(§7) The interaction between each test IgG and each peptide was estimated using assays in which the antibody was non-covalently captured by a protein G surface that was itself amine linked to a proprietary CM5 chip. […] The chip surface was regenerated between cycles by paired 40 second injections of 10 mM Glycine pH 2.0 to remove ligand and bound antibody. The test antibody was then reapplied for each peptide injection cycle.
(§8) Blank reference flow-cell data were subtracted from each IgG dataset and a zero-concentration antibody-only buffer blank was double-reference subtracted from the main dataset.

[10] = target: T4, synthetic human Amyloid beta 1-42 peptide (human, UniProt P05067 672-713); assay: SPR (BIAcore T-100); IgG captured on protein G, peptide 0.063-1024 nM in solution; 1:1 Langmuir fit
T4 construct: domain: Amyloid beta 1-42 peptide; also called Abeta 1-42
Protocol: The chip surface was regenerated between cycles by paired 40 second injections of 10 mM Glycine pH 2.0 to remove ligand and bound antibody. The test antibody was then reapplied for each peptide injection.
as §8, with “dataset. An appropriate binding model was then fitted simultaneously to the data from each analyte titration using the BIAevaluation software.” for “dataset.”

[11] = target: T2, unlabelled murine Amyloid beta 1-40 …; assay: Surface plasmon resonance (BIAcore), antibody captured on protein G, single cycle with five peptide injections
Protocol: as §3, §7, §8

[12] = target: T5, biotinylated human Amyloid beta 1-40 peptide (human, UniProt P05067 672-711, biotinylated); assay: as above
T5 construct: domain: Amyloid beta 1-40 peptide
Protocol: as §3, §7, §8

IC50 [5] [nM] | IC50 [6] [nM] | Kd [7] [nM] | koff [7] [s⁻¹] | kon [7] [M⁻¹ s⁻¹] | Binder | other results
– | – | – | – | – | B1 | binding result [1]: no binding (tested: log -5 M (10 uM))
0.43 | 0.38 to 0.47 | – | – | – | B2 | IC50 (read off the curve) [2]: ~0.5 nM; Kd [3]: < 0.25 nM; Kd [4]: 0.148 nM; koff [4]: 2.85e-05 s⁻¹; kon [4]: 193000 M⁻¹ s⁻¹
14 | 8.1 to 18 | 58.7 | 0.0066 | 116000 | B3 | –
0.36 | 0.3 to 0.41 | 0.133 | 4.34e-05 | 327000 | B4 | IC50 (read off the curve) [8]: ~0.4 nM
0.67 | 0.57 to 0.76 | 0.894 | 0.000188 | 210000 | B5 | –
0.32 | 0.29 to 0.35 | 0.154 | 3.02e-05 | 196000 | B6 | IC50 (read off the curve) [8]: ~0.3 nM
– | – | – | – | – | B7 | binding result [9]: binds; Kd [10]: 0.322 nM; koff [10]: 0.000307 s⁻¹; kon [10]: 952000 M⁻¹ s⁻¹; binding result [11]: no binding; binding result [12]: no binding
– | – | – | – | – | B8 | binding result [1]: no binding (tested: log -5 M (10 uM))
– | – | – | – | – | B9 | IC50 (read off the curve) [1]: ~5 nM
